B1: Azoarcus group I ribozyme (parent)
chain: GUGCCUUGCGCCGGGAAACCACGCAAGGGAUGGUGUCAAAUUCGGCGAAACCUAAGCGCCCGCCCGGGCGUAUGGCAACGCCGAGCCAAGCUUCGGCGCCUGCGCCGAUGAAGGUGUAGAGACUAGACGGCACCCACCUAAGGCAAACGCUAUGGUGAAGGCAUAGUCCAGGGAGUGGCGAAAGUCACACAAACCGG

Variants of B1 are the subject of the data set. Put plainly: reverse-splicing fitness (ratio to wild type); higher = more active; in vitro selection; Mg2+ level not given. The method in brief:
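An in vitro group I ribozyme library with randomized positions was T7-transcribed and gel-purified. In triplicate, 10 pmol RNA in EPPS pH 7.5 was reacted with 50 pmoles of a 30-nt RNA substrate for 1 h at 37 °C across several added MgCl2 levels (1–48 mM), then stopped with EDTA. Products were reverse transcribed from a substrate-complementary primer, PCR-amplified and sequenced (HiSeq 4000). Fitness is a variant's read proportion after selection over that before, normalised to wild type.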
Turning to C82A A111C A120C A145C C150A U176A, the reverse-splicing fitness came to 0.0106.

With A111U A145U C150G C169A U176C, the reverse-splicing fitness was determined as 0.0101.

On to A111G A145C C150G, for which the reverse-splicing fitness was 0.45. Take C82A A120G A145U C150G C169A U176G: the reverse-splicing fitness stood at 0.00378. On to C82U A111U A145C C150U C169G U176A, for which the reverse-splicing fitness was 0.0199. For the variant C82U A111U A120G C169U U176G, the reverse-splicing fitness stood at 0.00594.

In the case of C82G A111U A120U A145C C150G C169G U176G, the reverse-splicing fitness was determined as 0.00237.

For C82G A111C A120U A145C C150U U176A, the reverse-splicing fitness amounted to 0.00523. Turning to C82G A111C A120U A145G C169U U176C, the reverse-splicing fitness is 0.00468. With C82A A111C A145C C150G C169G, the reverse-splicing fitness is 0.00663.

Turning to A111U A120G C150U C169A U176A, the reverse-splicing fitness was 0.0189.

C82A A111C A120G A145G C150U C169A: the reverse-splicing fitness was found to be 0.0111. The same measure for C82A A111U A145U C150U: 0.181; for A111C A120C A145C C169G U176A: 0.0217; for C82A A111U U176A: 0.0911. In the case of A111U A120G C150A C169A U176G, the reverse-splicing fitness is 0.00606. The same measure for C82U A111U A120G A145C C150A C169A: 0.00756.

As for C82A A111G A145U C150A C169U U176C, the reverse-splicing fitness was 0.0109. The same measure for C82G A111G A145C C150G C169U: 0.00923. C82A A145G C150G C169A U176A: the reverse-splicing fitness amounted to 0.015.

As for C82U A111G A120C A145G C169A, the reverse-splicing fitness was found to be 0.00713. With C82U A120U A145U C150U C169A U176G the figure was 0.0019; with A111U A120U C150U C169A U176C, 0.00279. As to A111C A120G A145C C150U C169G U176A, the reverse-splicing fitness amounted to 0.0253. On to C82G A111G A120U C150G C169A U176G, for which the reverse-splicing fitness was found to be 0.00267. C82U A111C A120U A145U C150U: the reverse-splicing fitness stood at 0.0186. Regarding C82U A111C A120C C150U C169U U176C, the reverse-splicing fitness stood at 0.0196. With C82G A111C A120C A145U C169U U176C the figure was 0.0123; with A120C A145G C169G U176G, 0.00382; with C82U A111G A145C C150G U176A, 0.0112. Regarding A111C A120G A145U C150A C169A U176A, the reverse-splicing fitness was found to be 0.0109.

On to C82G A111G A145U C150U C169U, for which the reverse-splicing fitness stood at 0.0113. With C82G A120C A145G C150U C169A U176C, the reverse-splicing fitness came to 0.0158. For A111G A120G A145C U176G, the reverse-splicing fitness was 0.00892. Regarding C82A A111C A120G A145G C150G C169U U176G, the reverse-splicing fitness came to 0.00784. In the case of A120C A145G C150G C169G U176A, the reverse-splicing fitness is 0.00996. With C82G A111G A120G C150A C169G U176C the figure was 0.0263. Consider C82U A120C C169G U176G, for which the reverse-splicing fitness was 0.00419. Consider C82G A120G C150G C169U U176G, for which the reverse-splicing fitness came to 0.00645. C82A A120C A145G C150A C169G: the reverse-splicing fitness was 0.00977. As to C82U A111G A120G A145C C150U U176A, the reverse-splicing fitness stood at 0.0079. As for C82G A111G C150G C169A, the reverse-splicing fitness turned out to be 0.00975. Turning to C82G A111G A120U A145C C150G C169U U176A, the reverse-splicing fitness worked out at 0.00286. In the case of C82U A120G A145C C150A, the reverse-splicing fitness amounted to 0.00664. Turning to C82U A111G A120G A145U C150A C169U U176G, the reverse-splicing fitness was 0.0048. The same measure for C82U A120G A145G C150U C169A U176C: 0.0154; for C82A A111U A120U A145U U176A: 0.0073.

As for A111U A120G A145U C169G U176C, the reverse-splicing fitness came out at 0.045. With C82A A120C A145C C150U C169U, the reverse-splicing fitness was 0.0118.

Consider C82U A111U A120C A145U C150U C169A U176A, for which the reverse-splicing fitness is 0.0119. Consider C82A A120C A145C C169G U176A, for which the reverse-splicing fitness turned out to be 0.031. Regarding C82A A111C A120C A145U, the reverse-splicing fitness stood at 0.0241.

Regarding A111G A120U C150A U176G, the reverse-splicing fitness stood at 0.0203. With C82A A120C A145U C150U C169G U176A the figure was 0.0129; with C82A A111U A145C C169A U176A, 0.0109.

Turning to C82A A145U C150A C169A U176G, the reverse-splicing fitness turned out to be 0.0053.

Consider C82G A111G A120C U176C, for which the reverse-splicing fitness was found to be 0.045. As for C82A A111C C150G U176G, the reverse-splicing fitness was 0.00364. With C82A A111C A120U C150G C169G U176A the figure was 0.00439. C82A A111C A120U A145G C150U C169G U176C: the reverse-splicing fitness stood at 0.00509.

For C82A A111U A120G A145U C150A C169G U176A, the reverse-splicing fitness amounted to 0.0146. With C82U A111U A120U A145C C150G C169G U176A the figure was 0.00245; with C82G A111U A120G A145U U176C, 0.0193. As to C82U A111G A120C A145C C150G C169G U176G, the reverse-splicing fitness was 0.00397. As to C82A A120C C150U, the reverse-splicing fitness came to 0.0789. In the case of C82U A111C A120C A145C C169U U176C, the reverse-splicing fitness came out at 0.0147. As to C82A A120C A145U C150U C169U U176A, the reverse-splicing fitness came to 0.0145. With C82G A111G A145U C150G C169A U176G, the reverse-splicing fitness is 0.00637. Regarding C82A A145C U176C, the reverse-splicing fitness turned out to be 0.44.

As for C82G A111G A120G A145U C150A C169G, the reverse-splicing fitness amounted to 0.00924. For C82U A111C A120C C150A C169A U176A, the reverse-splicing fitness was 0.0186. In the case of C82A A111U A120C A145U C169U U176G, the reverse-splicing fitness is 0.00555.

For C82G A120C A145G C150U C169U U176A, the reverse-splicing fitness was 0.0184.

With A111C A120U C150G C169G U176G, the reverse-splicing fitness worked out at 0.00234. For the variant A120G C169G U176G, the reverse-splicing fitness was determined as 0.0117.

As for A111G A120G A145G C150G C169A U176A, the reverse-splicing fitness turned out to be 0.0122. Regarding A111U A120G A145U C150A C169U U176C, the reverse-splicing fitness is 0.0173. The same measure for C82G A145G C169U: 0.0164; for C82A A120U A145U C169A U176G: 0.00177; for C82U A111C A120C A145C C150G C169U: 0.00884. With C82A A120C A145U C150A C169U U176A the figure was 0.0151; with C82U A120G C150U C169U U176C, 0.0185. The same measure for C82A A111U A145G C150A C169A U176G: 0.00853; for C82A A111U A120U A145G C150A C169G: 0.00618.

Values taken from the RNAGym collection of RNA variant scans (doi:10.1093/molbev/msab373).
